Measurements reported in patent publication US20240067745A1 (ABMAX BIOTECHNOLOGY, published 2024).
Where “and” joins values, the source holds several entries; their conditions need not be identical. Identical values can stand only once.

T1: IL-1α (UniProt P01583 113-271)
T1 construct: Purchased coating factor
T1 sequence (looked up): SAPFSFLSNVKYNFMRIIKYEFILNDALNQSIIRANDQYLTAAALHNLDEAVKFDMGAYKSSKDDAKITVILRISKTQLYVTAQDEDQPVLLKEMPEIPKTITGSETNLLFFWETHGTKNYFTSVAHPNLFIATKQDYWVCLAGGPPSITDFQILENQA

T2: IL-8 (UniProt P10145 28-99, limits assumed)
T2 construct: Purchased coating factor
T2 sequence (looked up): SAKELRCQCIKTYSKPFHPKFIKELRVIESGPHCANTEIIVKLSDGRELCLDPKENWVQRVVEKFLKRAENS

T3: IL-4 (UniProt P05112 25-153)
T3 construct: Purchased coating factor
T3 sequence (looked up): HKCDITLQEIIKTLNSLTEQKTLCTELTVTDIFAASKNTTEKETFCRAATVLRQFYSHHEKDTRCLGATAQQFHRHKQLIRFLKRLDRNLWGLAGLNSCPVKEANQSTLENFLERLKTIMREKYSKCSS

T4: rIFN γ (recombinant human interferon γ) (human, UniProt P01579 24-166, limits assumed)
T4 construct: Purchased coating factor
T4 sequence (looked up): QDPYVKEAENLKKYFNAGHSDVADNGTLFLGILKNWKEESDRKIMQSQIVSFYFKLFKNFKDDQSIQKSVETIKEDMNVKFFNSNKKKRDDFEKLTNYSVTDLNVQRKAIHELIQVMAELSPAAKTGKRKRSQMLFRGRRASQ


Key:
IL-1α = biological target: T1, IL-1α; experiment: indirect ELISA, factor coated at 1 µg/ml
Experimental: (§1) The specific experimental process is as follows: C5, C3, C3b, rIFN γ (recombinant human interferon γ), IL-1α, IL-1β, IL-2, IL-4 and IL-8 (purchased from Inshore Technology, respectively) were mixed with PBS. Co., Ltd.), dilute the antigen to 1 μg/ml; add 100 μl/well of the diluted antigen to a 96-well plate, cover, overnight at 4° C.; shake off the liquid in the well, wash three times with PBS, 200 μl/well, manually Pat dry; block with 200 μl/well of 5% milk, block for 1 h, tap the edge of the ELISA plate every 15 minutes to promote the reaction; shake off the liquid in the well, wash once with PBS, 200 μl/well, pat dry by hand; add different light chains Heavy chain combination antibody, diluted in 5% milk, 100 μl/well, incubated for 1 h, tap the edge of the ELISA plate every 15 min to promote the reaction; shake off the liquid in the well, wash three times with PBS, 200 μl/well, pat dry by hand; add Goat anti-human secondary antibody, diluted in 5% milk, 100 μl/well; incubate for 1 h, tap the edge of the ELISA plate every 15 min to promote the reaction; preheat the TMB substrate at room temperature, and turn on the microplate reader to preheat; wash 5 times with PBS, 250 μl/well, the first three times 5 min, the last two times 10 min, pat dry by hand; add 50 μl/well of TMB substrate AB to each well, and develop color at room temperature for 20 min; use a scanner to scan and record the pictures, add 50 μl/well of stop solution, use enzyme The standard instrument reads OD450 and archives.

IL-8 = biological target: T2, IL-8; experiment: indirect ELISA, factor coated at 1 µg/ml
Experimental: as §1

IL-1β = biological target: T5, IL-1β (UniProt P01584 117-269); experiment: indirect ELISA, factor coated at 1 µg/ml
T5 construct: Purchased coating factor
Experimental: as §1

IL-4 = biological target: T3, IL-4; experiment: indirect ELISA, factor coated at 1 µg/ml
Experimental: as §1

[1] = biological target: T4, rIFN γ (recombinant human interferon γ); experiment: indirect ELISA, factor coated at 1 µg/ml
Experimental: as §1

C3 = biological target: T6, C3 (UniProt P01024 23-1663, limits assumed); experiment: indirect ELISA, factor coated at 1 µg/ml
T6 construct: Purchased coating factor
Experimental: as §1

IL-2 = biological target: T7, IL-2 (UniProt P60568 21-153); experiment: indirect ELISA, factor coated at 1 µg/ml
T7 construct: Purchased coating factor
Experimental: as §1

complement protein C5 = biological target: T8, complement protein C5 (human, UniProt P01031 19-1676, limits assumed); experiment: indirect ELISA, C5 coated at 0.3 µg/ml
T8 construct: Purchased antigen coated on the ELISA plate; Natural C5 is processed into beta and alpha chains from one precursor; also called human C5
Experimental: The experimental method is as follows: Dilute the antigen with C5 (purchased from Nearshore Technology Co., Ltd.) to 0.3 μg/ml with PBS; add 100 μl/well of the diluted antigen to a 96-well plate, cover, overnight at 4° C.; shake off The liquid in the well was washed three times with PBS, 200 μl/well, and patted dry; blocked with 5% milk-PBS 200 μl/well for 1 hour, and tapped every 15 minutes; the liquid in the well was shaken off, washed once with PBS, 200 μl/well, and patted dry; Add purified antibody (0-10 μg/ml) in a gradient, see Table 4 for antibody name, 5% milk-PBS dilution, 100 μl/well, incubate for 1 h, tap every 15 min; shake off the liquid in the well, wash three times with PBS, 200 μl/well, pat dry; add secondary antibody, diluted in 5% milk-PBS, 100 μl/well, incubate for 1 h, tap every 15 min; preheat TMB substrate at room temperature, and turn on the microplate reader to preheat; wash 5 times with PBS, 250μl/well, the first three times 5 min, the last two times 10 min, pat dry; add 50 μl/well of TMB substrate AB each, and develop color at room temperature for 20 min; use a scanner to scan and record the picture, add 50 μl/well of stop solution, use enzyme labeling The meter reads OD450.

T8 sequence (P01031 19-1676 limits assumed): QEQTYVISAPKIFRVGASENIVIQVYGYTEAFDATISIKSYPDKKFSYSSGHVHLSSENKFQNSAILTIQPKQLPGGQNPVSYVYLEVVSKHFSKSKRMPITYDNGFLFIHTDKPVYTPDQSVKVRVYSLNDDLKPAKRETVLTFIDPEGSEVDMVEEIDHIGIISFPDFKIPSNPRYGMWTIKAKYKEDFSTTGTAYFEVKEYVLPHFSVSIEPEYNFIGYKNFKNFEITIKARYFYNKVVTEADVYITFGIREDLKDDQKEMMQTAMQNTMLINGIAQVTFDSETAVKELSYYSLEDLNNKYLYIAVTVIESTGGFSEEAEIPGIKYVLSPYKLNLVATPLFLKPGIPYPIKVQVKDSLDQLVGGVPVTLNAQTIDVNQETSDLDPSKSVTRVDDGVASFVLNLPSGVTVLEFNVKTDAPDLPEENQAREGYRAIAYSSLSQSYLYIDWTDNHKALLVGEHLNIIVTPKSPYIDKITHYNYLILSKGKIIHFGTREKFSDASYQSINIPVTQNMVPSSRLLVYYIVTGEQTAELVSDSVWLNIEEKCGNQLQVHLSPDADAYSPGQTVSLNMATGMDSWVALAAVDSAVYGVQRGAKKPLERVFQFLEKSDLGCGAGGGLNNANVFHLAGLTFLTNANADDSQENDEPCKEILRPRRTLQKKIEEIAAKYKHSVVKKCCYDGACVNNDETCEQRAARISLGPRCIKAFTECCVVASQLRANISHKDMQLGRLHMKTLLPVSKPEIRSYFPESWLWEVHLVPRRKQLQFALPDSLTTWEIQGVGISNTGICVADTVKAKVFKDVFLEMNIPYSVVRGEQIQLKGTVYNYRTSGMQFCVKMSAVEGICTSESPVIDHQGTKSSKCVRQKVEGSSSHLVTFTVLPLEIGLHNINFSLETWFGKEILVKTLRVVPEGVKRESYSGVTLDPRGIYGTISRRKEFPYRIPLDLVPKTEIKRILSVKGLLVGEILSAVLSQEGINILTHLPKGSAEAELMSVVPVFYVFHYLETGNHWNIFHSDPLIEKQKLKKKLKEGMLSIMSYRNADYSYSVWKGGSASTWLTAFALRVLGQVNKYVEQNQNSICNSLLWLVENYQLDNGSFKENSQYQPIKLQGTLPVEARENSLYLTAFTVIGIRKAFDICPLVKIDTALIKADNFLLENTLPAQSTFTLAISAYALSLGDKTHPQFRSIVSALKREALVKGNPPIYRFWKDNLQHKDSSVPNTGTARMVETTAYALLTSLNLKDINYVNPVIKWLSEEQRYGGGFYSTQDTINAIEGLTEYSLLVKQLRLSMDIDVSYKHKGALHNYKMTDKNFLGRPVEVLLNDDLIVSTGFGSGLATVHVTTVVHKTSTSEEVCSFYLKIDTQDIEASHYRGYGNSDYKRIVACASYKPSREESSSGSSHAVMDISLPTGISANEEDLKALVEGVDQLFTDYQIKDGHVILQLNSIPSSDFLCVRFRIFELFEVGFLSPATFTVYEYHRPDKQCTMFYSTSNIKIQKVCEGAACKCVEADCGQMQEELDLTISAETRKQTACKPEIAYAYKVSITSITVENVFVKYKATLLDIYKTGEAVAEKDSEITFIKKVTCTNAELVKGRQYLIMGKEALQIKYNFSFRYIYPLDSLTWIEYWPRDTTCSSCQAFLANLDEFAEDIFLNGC
T6 sequence (P01024 23-1663 limits assumed): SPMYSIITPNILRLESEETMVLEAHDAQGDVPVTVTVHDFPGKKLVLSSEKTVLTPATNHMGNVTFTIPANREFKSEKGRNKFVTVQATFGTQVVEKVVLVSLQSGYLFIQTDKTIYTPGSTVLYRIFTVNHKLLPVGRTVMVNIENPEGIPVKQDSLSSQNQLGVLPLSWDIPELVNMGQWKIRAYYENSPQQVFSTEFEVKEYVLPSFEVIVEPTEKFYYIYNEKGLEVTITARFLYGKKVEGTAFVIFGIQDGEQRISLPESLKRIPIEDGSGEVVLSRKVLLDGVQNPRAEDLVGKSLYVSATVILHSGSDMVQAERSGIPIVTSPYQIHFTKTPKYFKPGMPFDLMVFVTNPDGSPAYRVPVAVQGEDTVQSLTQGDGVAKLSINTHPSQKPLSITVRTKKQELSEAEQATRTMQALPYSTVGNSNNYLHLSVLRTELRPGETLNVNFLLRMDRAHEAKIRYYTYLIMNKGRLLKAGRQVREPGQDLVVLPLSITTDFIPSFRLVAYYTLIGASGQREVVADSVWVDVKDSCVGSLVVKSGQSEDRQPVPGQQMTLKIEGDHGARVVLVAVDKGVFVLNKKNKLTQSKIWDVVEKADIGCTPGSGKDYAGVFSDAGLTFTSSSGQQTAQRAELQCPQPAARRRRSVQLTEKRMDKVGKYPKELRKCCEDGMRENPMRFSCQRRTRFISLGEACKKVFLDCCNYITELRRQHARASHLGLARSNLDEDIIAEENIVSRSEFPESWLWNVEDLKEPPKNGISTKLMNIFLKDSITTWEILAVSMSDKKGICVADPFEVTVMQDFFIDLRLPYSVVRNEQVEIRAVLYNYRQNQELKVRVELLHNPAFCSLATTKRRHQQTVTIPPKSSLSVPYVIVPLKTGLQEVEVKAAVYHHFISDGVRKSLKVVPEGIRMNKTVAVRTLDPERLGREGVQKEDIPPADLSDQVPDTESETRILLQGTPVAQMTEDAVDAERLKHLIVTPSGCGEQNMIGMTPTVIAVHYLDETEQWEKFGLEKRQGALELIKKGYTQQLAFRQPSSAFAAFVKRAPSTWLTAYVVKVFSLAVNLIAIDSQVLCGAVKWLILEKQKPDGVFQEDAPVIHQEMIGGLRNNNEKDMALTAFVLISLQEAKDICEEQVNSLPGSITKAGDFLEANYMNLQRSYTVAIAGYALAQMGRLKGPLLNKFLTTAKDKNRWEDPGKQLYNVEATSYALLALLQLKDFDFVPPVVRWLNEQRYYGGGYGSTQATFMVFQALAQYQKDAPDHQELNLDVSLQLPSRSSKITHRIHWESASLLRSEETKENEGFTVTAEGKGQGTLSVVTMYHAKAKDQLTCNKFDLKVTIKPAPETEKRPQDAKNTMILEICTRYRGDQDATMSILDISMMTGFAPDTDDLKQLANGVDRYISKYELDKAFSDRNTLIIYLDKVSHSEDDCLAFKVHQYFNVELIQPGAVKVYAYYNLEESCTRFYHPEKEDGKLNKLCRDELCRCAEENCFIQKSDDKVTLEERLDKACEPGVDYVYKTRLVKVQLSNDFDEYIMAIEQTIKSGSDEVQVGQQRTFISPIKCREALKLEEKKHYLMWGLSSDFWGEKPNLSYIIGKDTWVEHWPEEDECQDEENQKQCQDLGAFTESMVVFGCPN
T7 sequence (P60568 21-153 limits assumed): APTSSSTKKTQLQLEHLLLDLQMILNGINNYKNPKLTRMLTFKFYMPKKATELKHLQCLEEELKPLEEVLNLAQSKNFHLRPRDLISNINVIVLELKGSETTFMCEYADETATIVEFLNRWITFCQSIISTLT

Row | Binder | binding result (IL-1α) | binding result (IL-8) | binding result (IL-1β) | binding result (IL-4) | binding result [1] | binding result (C3) | binding result (IL-2) | EC50 (complement protein C5)
1 | Improved Eculizumab monoclonal antibody H1L0 (antibody, human IgG1, kappa, V domains shown, also called Improved H1L0; H1L0 (Improved)) VH: QVQLVQSGGGVVQPGASVKVSCKASGYIFSNYWIQWVRQAPGQGLEWMGEILPGSGSTEYTENFKDRVTMTRDTSTSTVYMELSSLRSEDTAVYYCARYFFGSSPNWYFDVWGQGTLVTVSS VL: DIQMTQSPSSLSASVGDRVTITCGASENIYGALNWYQQKPGKAPKLLIYGATNLADGVPSRFSGSGSGTDFTLTISSLQPEDFATYYCQNVLNTPLTFGQGTKVEIKR | no binding | no binding | no binding | no binding | no binding | no binding | no binding | 0.00382 µg/mL and 0.0255 nM
2 | Improved Eculizumab monoclonal antibody H3L0 (antibody, human IgG1, kappa, V domains shown, also called Improved H3L0; H3L0 (Improved)) VH: QVQLVQSGGGVVQPGASVKVSCKASGYIFSNYWIQWVRQAPGQGLEWMGEILPGSGSTEYTENFKDRVTLTTDSSTTTAYMELKSLQFDDTAVYYCARYFFGSSPNWYFDVWGQGTLVTVSS VL: DIQMTQSPSSLSASVGDRVTITCGASENIYGALNWYQQKPGKAPKLLIYGATNLADGVPSRFSGSGSGTDFTLTISSLQPEDFATYYCQNVLNTPLTFGQGTKVEIKR | no binding | no binding | no binding | no binding | no binding | no binding | no binding | 
